Experimental data reported in the DeepSol protein solubility set.

test: soluble on expression in E. coli; label from the status in PepcDB or PDB records

Sequence | soluble on expression in E. coli
SRLLKTDLLEDVFNVENESFMQETELKENEYSVNLRTRFWFRGRAYDGWINLVNPFRATMVLGTPGSGKSYAIINQYIKQTIEKGYSLFLYDFKYPDLSEIAYNHLLAHLDGYKVKPKFYVINFDNPRESHRCNPIHPDFMTDISDAYESAYTIMLNLNRTWISKQGDFFVESPIILLASIIWYLKIYKNGKYCTFPHAIEFLNRKYADIFPILTSYPELENYLSPFMDAWESSAVEQLQGQIASAKIPLSRMISPALYWVMTADDFTLDINNPEEPKVLVVGNNPDRQGIYGAALGLYNSRIVKLINKKKRLKSAVIIDELPTIYMRGLDNLIATARSNKVAVMLGFQDFSQLKRDYGDKESAVICNTVGNVFAGQVVAETAKTLSERFGKVLQKRQNMTINRNETSVSINTQMDSLIPASKISNLTQGMFVGAVADNFDERIEQKIFHAEIVVDNEQVRRETARYVKIPQIIDFTDKDGNDTMQQQIDANYYRIKSEVRQIVADEIGRIKADPELSHLIKDK | not soluble
SRTVALGIVAMACLVAIAHGGNFFQDAEVSWGQGRGKIVDGGRGLDLTLDRSSGSGFQSKSEYLFGKIDMQIKLVPGGWWNQELSDMSYRRMRWVQRKFMIYNYCTDAKRFPQGTPAECKLR | soluble
SSDSFDRAPEQTKPQRAPPSSQDKIPQQNSESAMAKPQVVVAPVLMSKLSANAPEFYPSGYSSNYTESYEDGCEDYPTLSEYVQDFLNHLTEQPGSFETEIEQFAETLNGWVTTDDALQELVELIYQQATSIPNFSYMGARLCNYLSHHLTISPQSGNFRQLLLQRCRTEYEAKDQAAKGDEVTRKRFHAFVLFLGELYLNLEIKGTNGQVTRADILQVGLRELLNALFSNPMDDNLICAVKLLKLTGSVLEDTWKEKGKTDMEEIIQRIENVVLDANCSRDVKQMLLKLVELRSSNWGRVHATSTYREATPENDPNYFMNEPTFYTSDGVPFTAADPDYQEKYQELLEREDFFPDYEENGTDLSGAGDPYLDDIDDEMDPEIEEAYEKFCLESERKRKQ | not soluble
SSDVTFLVEGRPFYAHKVLLFTASPRFKALLSSKPTNDNTCIEIGYVKYPIFQLVMQYLYYGGPESLLIKNNEIMELLSAAKFFQLEALQRHCEIICAKSINTDNCVDIYSHAKFLGVTELSAYCEGYFLKNMMVLIENEAFKQLLYDKNGEGAGQDVLQDLQRTLAIRIQSIHLSSSKGSVV | soluble
SSFKKILGLSSKSHKKSKKMGLPPPYDESSPMETQPSAPLSNDFFGMEDMDLYDKDSLRYEKFRFMLKMTVRSNKPFRSYDDVTAAVSQWDNSYIGMVGKRPFYKIIALIGSSHLQATPAVLADLNQPEYYATLTGRCFLPHRLGLIPPMFNVSETFRKPFNIGIYKGTLDFTFTVSDDESNEKVPHVWEYMNPKYQSQIQKEGLKFGLILSKKATGTWVLDQLSPFK | soluble
SSLIKKIEENERKDTLNTLQNMFPDMDPSLIEDVCIAAASRIGPCVDALLSLSE | soluble
SSMLPSFGFTQEQVACVCEVLQQGGNLERLGRFLWSLPACDHLHKNESVLKAKAVVAFHRGNFRELYKILESHQFSPHNHPKLQQLWLKAHYVEAEKLCGRPLGAVGKYRVRRKFPLPRTIWDGEETSYCFKEKSRGVLREWYAHNPYPSPREKRELAEATGLTTTQVSNWFKNRRQRDRAAEAKERENTENNNSSSNKQNQLSPLEGGKPLMSSSEEEFSPPQSPDQNSVLLLQGNMGHARSSNYSLPGLTASQPSHGLQTHQHQLQDSLLGPLTSSLVDLGS | soluble
SSNPRSLEEEKYDMSGARLALILCVTKAREGSEEDLDALEHMFRQLRFESTMKRDPTAEQFQEELEKFQQAIDSREDPVSCAFVVLMAHGREGFLKGEDGEMVKLENLFEALNNKNCQALRAKPKVYIIQACRGEQRDPGETVGGDEIVMVIKDSPQTIPTYTDALHVYSTVEGYIAYRHDQKGSCFIQTLVDVFTKRKGHILELLTEVTRRMAEAELVQEGKARKTNPEIQSTLRKRLYLQ | soluble
SSRERIKRELPPVQEHIDKLRKVIEEGNYYGALQMYKSISARYVTAQRFSEALDILFSGACIELEHGLVNCGADLAILFVDTLVKATSPCNDETLDRIRCIFKLFPRVPVPPHLVDVSDDEDVQNLQESLGEARSRVENLTSFLRAAIKWSAEFGGPRTGYPELHAMLGDYLYTECPELDMVRISRHFVRAEDPEKFASMLVNFMGRCYPGEDDLAIARAVLMYLSMGNMKDANFMMDEIKKQAETKNPELSESDLIQFISYLLETLQRDALPLFNMLRVKYKSSIDRDQLLNELLDEIAERFYGVQRKNPLQGMFGDIFKMMG | soluble
SSVASALLLQEAQAGFCRVDGTIDNNHTGFTGSGFANTNNAQGAAVVWAIDATSSGRRTLTIRYANGGTANRNGSLVINGGSNGNYTVSLPTTGAWTTWQTATIDVDLVQGNNIVQLSATTAEGLPNIDSLSVVGGTVRAGNCG | soluble
SSVLLRPILPEDEPKHASFISQVSHDDLYKRFFSEVGEFNHEALANFTQIDYDREMAFVATKQIDGEEIIIAVVRALSDPNHTNTEFAVLVRSDLKGLGLGKILMEKIIRYCQSIGIKVMTGMTMPANHGMIGLAQHLGFSVDIQMSDGVVDMFLEL | not soluble
STAREQPIFSTRAHVFQIDPATKRNWIPAGKHALTVSYFYDATRNVYRIISIGGAKAIINSTVTPNMTFTKTSQKFGQWADSRANTVYGLGFASEQHLTQFAEKFQEVKEAARLARE | soluble
STFEELNGDYSIERMDSVIKALEEVLRSALPQGCITVGVYEAAKSLNVDPDNVVLCILATDDDDVKDVALQIHFTLIQAFCCENDINILRVNNTRRLANILGGAGMHGSEQMDLHCILVTVPHASTWKNPALGKVNRFCRESRCMDQWVPIINLPER | soluble
STLSRFAYNGKRCPSSYNILDNSKIISEECRKELTALLHHYYPIEIDPHRTVKEKLPHMVEWWTKAHNLLCQQKIQKFQIAQVVRESNAMLREGYKTFFNTLYHNNIPLFIFSAGIGDILEEIIRQMKVFHPNIHIVSNYMDFNEDGFLQGFKGQLIHTYNKNSSVCENCGYFQQLEGKTNVILLGDSIGDLTMADGVPGVQNILKIGFLNDKVEERRERYMDSYDIVLEKDETLDVVNGLLQHILCQGVQLEMQGP | soluble
STRDDDDDEDDEEEEDSGAWGRESYAFDGFHPTEEFGFSFSPRGGMRFHGNFGFDDLVRDFNSIFSEMGAWTLPSHSPELPGPESETPGVRLREGQTLRDSMLKYPDSHQPRIFEGVLESHAKPESSKPAPDWGSQGPFHRLDDTWPVSPHSRAREDKDLDSQVSQEGLGPLLQPQPKSYFKSISVTKITKPDGTVEEHRTVVDGEGRRETTVTHQEAHDSSRSDPDPPRSSALDDPFSILDLLLGRWFRSR | soluble
STSCVAEEPIKKIAIFGGTHGNELTGVFLVTHWLKNGAEVHRAGLEVKPFITNPRAVEKCTRYIDCDLNRVFDLENLSKEMSEDLPYEVRRAQEINHLFGPKNSDDAYDVVFDLHNTTSNMGCTLILEDSRNDFLIQMFHYIKTCMAPLPCSVYLIEHPSLKYATTRSIAKYPVGIEVGPQPHGVLRADILDQMRRMLKHALDFIQRFNEGKEFPPCAIDVYKIMEKVDYPRNESGDVAAVIHPNLQDQDWKPLHPGDPVFVSLDGKVIPLGGDCTVYPVFVNEAAYYEKKEAFAKTTKLTLNAKSIRSTLH | not soluble
SVRTACKSRAVSSGKQTGKWQSWSDAGVLTVFECEGLKLILNTWTPIPFSPFPVHHLFTPMLIGRLCGTRIETLALIHGGISLPATALRSPNSGVKLPLLVSPLFPMETTPSALRLLSSHKAESGSPTLFTLVHLLPLLLQ | soluble
SWQTYVDTNLVGTGAVTQAAIIGHDGNTWATSAGFAVSPANGAALANAFKDATAIRSNGFELAGTRYVTIRADDRSVYGKKGSAGVITVKTSKAILIGVYNEKIQPGTAANVVEKLADYLIGQGF | soluble
SYETSQHNLDAVEAVLSRLQKQTGEMAAYMVPVGYRALCVSQRESMQALRCSFVQGQSQPLLRGASSKVMLAYMPAARCEKILRYFGEDPTLDKWQSEFEKIRRHGYAVSTSEIDPGVSGISAPVMKGSKLIGAISVMAPAHRVESNKQRIILHVLQAARALPPER | not soluble
SYYHHHHHHLESTSLYKKAGLKIKAVGAYSAKQPLEPMDITRREPGPNDVKIEIAYCGVCHSDLHQVRSEWAGTVYPCVPGHEIVGRVVAVGDQVEKYAPGDLVGVGCIVDSCKHCEECEDGLENYCDHMTGTYNSPTPDEPGHTLGGYSQQIVVHERYVLRIRHPQEQLAAVAPLLCAGITTYSPLRHWQAGPGKKVGVVGIGGLGHMGIKLAHAMGAHVVAFTTSEAKREAAKALGADEVVNSRNADEMAAHLKSFDFILNTVAAPHNLDDFTTLLKRDGTMTLVGAPATPHKSPEVFNLIMKRRAIAGSMIGGIPETQEMLDFCAEHGIVADIEMIRADQINEAYERMLRGDVKYRFVIDNRTLTD | soluble
TAQFSWDTQLNFSQNKSKIIELLPGKPGMQYALGGSDALQVYAVAGGAYGEIWGTKYQRVEEGEFKGQLLLNESGLPQATSDKHKIGEQQPDFLLGWTNTFNYKNFTLSFLIDGRFGGDIFSFTNMNLQRSGIAECTAPGGKREDIVVAGVIKDGNGYKVNDQSVSLERYYKALATGRAGISEAYIYDATNIRLRNIALSYRFPSSMLKKTPFQQVKLGFTVNNVWMISSHLDGIDPESVYATSTNATGLENSSAPTSRSYLFNVTLGF | not soluble
TITLTENKRKSMEKLSVDGVISALAFDQRGALKRMMAQHQTKEPTVEQIEELKSLVSEELTPFASSILLDPEYGLPASRVRSEEAGLLLAYEKTGYDATTTSRLPDCLDVWSAKRIKEAGAEAVKFLLYYDIDGDQDVNEQKKAYIERIGSECRAEDIPFYLEILTYDEKIADNASPEFAKVKAHKVNEAMKVFSKERFGVDVLKVEVPVNMKFVEGFADGEVLFTKEEAAQAFRDQEASTDLPYIYLSAGVSAKLFQDTLVFAAESGAKFNGVLCGRATWAGSVKVYIEEGPQAAREWLRTEGFKNIDELNKVLDKTASPWTEKM | soluble
TKDFNWNSTFNIAYNSSDVKYLGIDGTGEKIKRLTLDGANSRVGSVSVQNILGHPYGELVGYEYKRTSDGQVIFENGLPVHSDEVQVLGNGVYKVTGGWRNEFTYKNITLSFLIDFKAGAKMFSGTNLSLYSNGLHKNTLQGRGADGKGTMVGNGVMSDGKGGYVKNTVAVSAQDYWQAITSQNIAEEFVYNASFIKLRELSVGYTLPQAWLNKQTLIKGVTLSLVGRNLWTILKHTDNIDPESAYNNGNAQGLELNGYPATRNVGFNVNVKF | not soluble
TKRYYKSAFPVRICVIQYEMKKIYSFEEFANQVEYYVDVASDARSDFAVFPEIFTTQLMSFLEERSPSLAVQRITEYTEDYISLFTDLAVKYNVNIIGGSHFVEEEGKIYNIAYLFRRDGTIEKQYKLHITPNERKWWGISAGDQVRVFDTDCGKIAIQICYDIEFPELARIAADKGAKIIFTPFCTEDRQGYLRVRYCSQARAVENQIYTVISGTVGNLPQTENMDIQYAQSGIFAPSDFEFARDGIVGETNPNIEMVVIGDVDLEILRRQRQNGTVRQLKDRRRDIYHIQYKK | not soluble
TLAQPVTIREIAEPPKIRLPRHLRQTYIRKVGEQLNLVVPFQGKPRPQVVWTKGGAPLDTSRVHVRTSDFDTVFFVRQAARSDSGEYELSVQIENMKDTATIRIRVVEKAG | soluble
TLAYKEGFYYKPRIDYELLEKYGEGLIALTACLKGVPTYYASINEVKKAEEWVKKFKDIFGDDLYLELQANNIPEQEVANRNLIEIAKKYDVKLIATQDAHYLNPE | soluble
TLINHLKSLKSQVSAKSASETSQTKQNKTFLAFTTVNADQKAIFDVGKLNGKTAKIIINATETTNAKISTLQEKEAIVLKAPQRFESTDPFPI | not soluble
